Measured values from patent US20240018269A1 (MACFARLANE BURNET INSTITUTE FOR MEDICAL RESEARCH AND PUBLIC …, published 2024).
Positions count from the first letter of the chain named.

What was measured:
[1] = target: T1, recombinant soluble FcγRIIb (human, UniProt P31994 43-217); test: BLI (Octet); anti-TNP IgG captured on TNP-BSA-biotin, rsFcγR in solution; global 1:1 Langmuir fit
T1 construct: extracellular domain; also called rsFcγRIIb
T1 sequence (looked up): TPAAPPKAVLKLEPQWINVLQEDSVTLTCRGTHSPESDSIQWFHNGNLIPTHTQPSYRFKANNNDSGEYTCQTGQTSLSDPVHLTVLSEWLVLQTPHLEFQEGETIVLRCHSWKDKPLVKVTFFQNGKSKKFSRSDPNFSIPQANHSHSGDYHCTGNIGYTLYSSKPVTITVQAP
Protocol: (§1) Affinity measurements of IgG:FcR interaction using Bio-Layer Interferometry (OCTET) TNP-BSA was reacted with the EZ-Link™ biotinylation reagent (ThermoFisher Scientific) according to the manufacturer's instructions. The resulting TNP-BSA-biotin (5 μg/ml, 30 sec) was captured to ˜0.8 nm on streptavidin BLI probes using an Octet Red96 (ForteBio; Molecular Devices LLC, San Jose, CA, United States of America) then loaded with anti-TNP IgG (4 μg/ml, 75 sec). A baseline was established (60 sec) followed by the association and dissociation (90s) of a concentration series (15 nM to 20 μM) of rsFcγRIIa-R131 or rsFcγRIIb. Regeneration after each initial reaction TNP-BSA-biotin capture and the subsequent binding cycles used 10 mM HCl.

[2] = target: T2, human FcγRIIb expressed on the cell surface (human, UniProt P31994 43-310); test: cell-based or functional assay
T2 sequence (looked up): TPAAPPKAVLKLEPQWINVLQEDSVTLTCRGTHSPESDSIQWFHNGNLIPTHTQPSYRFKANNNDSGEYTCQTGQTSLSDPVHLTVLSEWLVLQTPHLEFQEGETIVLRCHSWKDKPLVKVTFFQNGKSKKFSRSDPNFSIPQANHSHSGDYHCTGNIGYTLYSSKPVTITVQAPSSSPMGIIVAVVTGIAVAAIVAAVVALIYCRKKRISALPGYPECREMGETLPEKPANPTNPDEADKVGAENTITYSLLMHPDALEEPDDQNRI

[3] = target: T3, human FcγRIIIa-V158 expressed on the cell surface (human, UniProt P08637 17-254); test: flow cytometry; immune complexes on IIA1.6 cells expressing the FcγR
T3 construct: whole, on cells; Co-expressed with the FcR common γ chain (FcRγ-EGFP)
Protocol: (§2) Antibody FcγR binding was measured using either immune complexes or monomeric IgG. Immune complexes were generated by incubating the anti-TNP antibodies (parental or mutant anti-TNP IgG) with TNP-BSA at a 2:1 ratio (40 μg/ml:20 μg/ml) for 30 minutes at 37° C. then 10 minutes at 4° C. […] The cells were washed twice, resuspended in […] PBS/0.5% BSA and 10,000 viable cells analysed in at least three experiments. Monomer IgG binding (MFI) were fitted to a single binding site model to determine binding affinity (KA). Similarly immune complex binding is reported as apparent affinity (K app).

[4] = target: T4, human FcγRIIIa-F158 expressed on the cell surface (human, UniProt P08637 17-254); test: as above
T4 construct: whole, on cells; Co-expressed with the FcR common γ chain (FcRγ-EGFP)
Protocol: as §2

[5] = target: T2, human FcγRIIb expressed on the cell …; test: flow cytometry; monomeric IgG on IIA1.6 cells expressing FcγRIIb, single site fit of MFI
Protocol: as §2
In an attempt to further improve FcγRIIb specificity, two residues in CH2 of the Fc domain were additionally modified (see Table 1). Particularly, two mutations S267E and L328F (SELF) which have been used in the IgG1 backbone (Chu S Y et al., Mol Immunol 45(15):3926-3933, 2008) were introduced into the IgG2- and IgG4-based mAbs, IgG2-FLGG, IgG2-FEGG and IgG4-FEGG, as well as the parental IgG4 antibody. The antibodies were then tested for specificity (see FIGS. 4-6) and inhibitory potency in allergen specific (FIG. 3) and anti-IgE BAT (FIG. 7). Several effects were apparent.

[6] = target: T5, recombinant soluble FcγRIIa-Arg131 (human, UniProt P12318 34-217); test: BLI (Octet); anti-TNP IgG captured on TNP-BSA-biotin, rsFcγR in solution; global 1:1 Langmuir fit
T5 construct: extracellular domain; Arg131 allelic form; also called rsFcγRIIa-R131
T5 sequence (looked up): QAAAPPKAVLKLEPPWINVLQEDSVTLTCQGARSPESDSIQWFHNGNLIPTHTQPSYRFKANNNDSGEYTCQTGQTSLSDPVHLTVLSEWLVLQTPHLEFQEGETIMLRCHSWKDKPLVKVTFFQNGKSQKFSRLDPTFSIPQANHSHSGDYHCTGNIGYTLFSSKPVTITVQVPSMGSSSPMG
Protocol: as §1

[7] = target: T6, human FcγRI expressed on the cell surface (human, UniProt P12314 16-374); test: flow cytometry; monomeric IgG on IIA1.6 cells expressing FcγRI
T6 construct: whole, on cells; Co-expressed with the FcR common γ chain
Protocol: as §2

[8] = target: T7, human FcγRIIa-H131 expressed on the cell surface (human, UniProt P12318 34-317); test: flow cytometry; immune complexes with TNP-BSA on IIA1.6 cells expressing the FcγR
T7 construct: whole, on cells
T7 sequence (looked up): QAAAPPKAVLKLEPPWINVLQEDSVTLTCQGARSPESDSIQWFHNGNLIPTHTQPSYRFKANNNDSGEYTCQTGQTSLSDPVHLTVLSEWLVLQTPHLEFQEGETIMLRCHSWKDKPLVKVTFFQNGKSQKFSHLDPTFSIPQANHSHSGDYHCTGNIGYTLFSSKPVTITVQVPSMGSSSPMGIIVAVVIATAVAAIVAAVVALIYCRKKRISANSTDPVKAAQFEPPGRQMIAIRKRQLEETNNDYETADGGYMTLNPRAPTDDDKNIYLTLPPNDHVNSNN
Protocol: as §2
(§3) The interaction of the mutant IgGs with the human FcγRs on the cell surface was evaluated by flow cytometry and compared to the binding of parental IgG2 or IgG4 as well as to IgG1, the “universal” ligand for all human FcγR. Binding to the low affinity human FcγR (FcγRIIb, FcγRIIa, and FcγRIII) was performed using immune complexes (FIG. 1A-E). Binding to the high affinity FcγRI was determined using monomeric IgG (FIG. 1F). […] Uncomplexed, monomeric IgG1 and IgG4, but not IgG2, bound to the high affinity FcγRI.

[9] = target: T3, human FcγRIIIa-V158 expressed on the …; test: as above
Protocol: as §2, §3

[10] = target: T4, human FcγRIIIa-F158 expressed on the …; test: as above
Protocol: as §2, §3

[11] = target: T8, human FcγRIIa-R131 expressed on the cell surface (human, UniProt P12318 34-317); test: as above
T8 construct: whole, on cells
T8 sequence (looked up): T7 sequence (looked up) with H134R
Protocol: as §2, §3

T6 sequence (P12314 16-374): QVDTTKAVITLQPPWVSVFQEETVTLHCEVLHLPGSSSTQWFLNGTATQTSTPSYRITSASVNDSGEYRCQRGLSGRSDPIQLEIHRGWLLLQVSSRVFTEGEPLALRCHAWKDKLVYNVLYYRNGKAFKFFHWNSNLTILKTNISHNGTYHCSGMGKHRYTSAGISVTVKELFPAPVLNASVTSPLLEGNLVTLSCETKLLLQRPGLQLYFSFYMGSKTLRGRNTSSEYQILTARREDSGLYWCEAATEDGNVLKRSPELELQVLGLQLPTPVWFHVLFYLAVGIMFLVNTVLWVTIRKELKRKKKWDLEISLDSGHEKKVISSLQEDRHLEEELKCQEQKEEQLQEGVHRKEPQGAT
T4 sequence (P08637 17-254): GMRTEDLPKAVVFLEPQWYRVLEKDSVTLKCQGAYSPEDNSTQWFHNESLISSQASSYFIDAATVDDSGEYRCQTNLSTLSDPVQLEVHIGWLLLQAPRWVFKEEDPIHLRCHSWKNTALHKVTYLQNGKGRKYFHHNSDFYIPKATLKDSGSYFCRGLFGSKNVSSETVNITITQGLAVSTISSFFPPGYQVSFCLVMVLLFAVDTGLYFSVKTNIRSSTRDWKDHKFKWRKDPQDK
T3 sequence (P08637 17-254 F176V): as the sequence (P08637 17-254) above, with F160V counted along it

B1: chimeric anti-TNP human IgG2-FLGG (antibody)
heavy: EVQLQESGPSLVKPSQTLSLTCSVTGDSITSGYWNWIRQVPGNKLEYMGFINYSGNTYYNPSLRSRISITRDTSKNQYFLHLNSVTTEDTATYYCARANWDVFAYWGQGTLVTVSAASTKGPSVFPLAPCSRSTSESTAALGCLVKDYFPEPVTVSWNSGALTSGVHTFPAVLQSSGLYSLSSVVTVPSSNFGTQTYTCNVDHKPSNTKVDKTVERKCCVECPPCPAPEFLGGPSVFLFPPKPKDTLMISRTPEVTCVVVDVSHEDPEVQFNWYVDGVEVHNAKTKPREEQFNSTFRVVSVLTVVHQDWLNGKEYKCKVSNKGLPAPIEKTISKTKGQPREPQVYTLPPSREEMTKNQVSLTCLVKGFYPSDIAVEWESNGQPENNYKTTPPMLDSDGSFFLYSKLTVDKSRWQQGNVFSCSVMHEALHNHYTQKSLSLSLGK
light: not shown
notes: The entry includes a leader; the C-terminal LGK may differ
Ka [1]: 830000 M⁻¹
% inhibition of Api m 1 induced basophil activation (washed blood BAT) [2]: 85%
IC50 of inhibition of basophil activation (whole blood BAT) [2]: 1.6 µg/mL

B2: Anti-TNP mAb formatted as IgG2-FLGG-SELF mutant (antibody)
heavy: B1 heavy with S263E, L324F
light: not shown
binding result [3]: no binding
binding result [4]: no binding
Ka [5]: 8.9e+07 M⁻¹
Ka [1]: 1.03e+08 M⁻¹
Ka [6]: 6.3e+08 M⁻¹
IC50 of inhibition of basophil activation (whole blood BAT) [2]: 0.24 µg/mL

B3: Anti-TNP mAb formatted as IgG2-FEGG-SELF mutant (antibody)
heavy: B1 heavy with L231E, S263E, L324F
light: not shown
binding result [7]: no binding
Ka [5]: 3.2e+07 M⁻¹
Ka [1]: 2.9e+07 M⁻¹
Ka [6]: 1.88e+08 M⁻¹
IC50 of inhibition of basophil activation (whole blood BAT) [2]: 0.38 µg/mL

B4: chimeric anti-TNP human IgG2-LLGG (antibody)
heavy: B1 heavy with F230L
light: not shown
notes: The entry includes a leader
Ka [1]: 800000 M⁻¹
% inhibition of Api m 1 induced basophil activation (washed blood BAT) [2]: 81%

B5: chimeric anti-TNP human IgG4-SELF (antibody)
heavy: EVQLQESGPSLVKPSQTLSLTCSVTGDSITSGYWNWIRQVPGNKLEYMGFINYSGNTYYNPSLRSRISITRDTSKNQYFLHLNSVTTEDTATYYCARANWDVFAYWGQGTLVTVSAASTKGPSVFPLAPCSRSTSESTAALGCLVKDYFPEPVTVSWNSGALTSGVHTFPAVLQSSGLYSLSSVVTVPSSSLGTKTYTCNVDHKPSNTKVDKRVESKYGPPCPSCPAPEFLGGPSVFLFPPKPKDTLMISRTPEVTCVVVDVEQEDPEVQFNWYVDGVEVHNAKTKPREEQFNSTYRVVSVLTVLHQDWLNGKEYKCKVSNKGFPSSIEKTISKAKGQPREPQVYTLPPSQEEMTKNQVSLTCLVKGFYPSDIAVEWESNGQPENNYKTTPPVLDSDGSFFLYSRLTVDKSRWQEGNVFSCSVMHEALHNHYTQKSLSLSLGK
light: not shown
IC50 of inhibition of basophil activation (whole blood BAT) [2]: 1.1 µg/mL

B6: chimeric anti-TNP human IgG2 (IgG2-WT) (antibody)
heavy: EVQLQESGPSLVKPSQTLSLTCSVTGDSITSGYWNWIRQVPGNKLEYMGFINYSGNTYYNPSLRSRISITRDTSKNQYFLHLNSVTTEDTATYYCARANWDVFAYWGQGTLVTVSAASTKGPSVFPLAPCSRSTSESTAALGCLVKDYFPEPVTVSWNSGALTSGVHTFPAVLQSSGLYSLSSVVTVPSSNFGTQTYTCNVDHKPSNTKVDKTVERKCCVECPPCPAPPVAGPSVFLFPPKPKDTLMISRTPEVTCVVVDVSHEDPEVQFNWYVDGVEVHNAKTKPREEQFNSTFRVVSVLTVVHQDWLNGKEYKCKVSNKGLPAPIEKTISKTKGQPREPQVYTLPPSREEMTKNQVSLTCLVKGFYPSDIAVEWESNGQPENNYKTTPPMLDSDGSFFLYSKLTVDKSRWQQGNVFSCSVMHEALHNHYTQKSLSLSLGK
light: not shown
notes: also called parental IgG2; wild type IgG2
binding result [7]: no binding
Ka [1]: 59000 M⁻¹
binding result [8]: binds
binding result [9]: no binding
binding result [10]: no binding
binding result [11]: no binding

B7: anti-TNP IgG2-SELF (antibody)
heavy: B6 heavy with S262E, L323F
light: not shown
Ka [1]: 3.4e+07 M⁻¹
Ka [6]: 9.1e+07 M⁻¹
